# Results: US20240124597A1 (Bristol-Myers Squibb, published 2024)
# Changes are numbered by the printed parent chain. Names and notes keep the numbering of the source.
# B1: Y12XX-hz42-P238K (antibody, human IgG1, kappa, V domains shown)
# VH: QVQLVQSGAEVKKPGSSVKVSCKASGYAFTSYWMHWVRQAPGQGLEWMGQINPTTGRSQYNEKFKTRVTITADKSTSTAYMELSSLRSEDTAVYYCARWGLQPFAYWGQGTLVTVSS
# VL: EIVMTQSPATLSVSPGERATLSCKASQDVSTAVAWYQQKPGQAPRLLIYSASYRYTGIPARFSGSGSGTEFTLTISSLQSEDFAVYYCQQHYSTPWTFGGGTKVEIKR
# notes: also called Vh-hz14;Vk-hz3
# B2: Y12XX-hz40-P238K (antibody, human IgG1, kappa, V domains shown)
# VH: B1 VH with T54S, T55Q
# VL: B1 VL
# notes: also called Vh-hz12;Vk-hz3
# B3: Y12XX-hz19 (antibody, human IgG1, kappa, V domains shown)
# VH: QVQLVQSGAEVKKPGSSVKVSCKASGYAFTSYWMHWVRQRPGQGLEWMGYINPTTGYSAYNQKFKDKATLTADKSTSTAYMELSSLRSEDTAVYYCARWDPRPFAYWGQGTLVTVSS
# VL: DIQMTQSPSFLSASVGDRVTITCKASQDVSTAVAWYQQKPGKAPKLLIYSASYRYTGVPSRFSGSGSGTDFTLTISSLQPEDFATYYCQQHYSTPWTFGGGTKVEIKR
# notes: Humanized, IgG1-P238K; supernatant sample
# B4: Y12XX-hz6 (antibody, human IgG1, kappa, V domains shown)
# VH: B3 VH with M48I, S84N
# VL: B3 VL with F10S, L73F, F83I
# notes: as for B3
# B5: Y12XX-hz20 (antibody, human IgG1, kappa, V domains shown)
# VH: B3 VH with M48I, S84N
# VL: B3 VL
# notes: as for B3
# B6: Y12XX-hz34 (antibody, human IgG1, kappa, V domains shown)
# VH: B3 VH with M48I, S84N
# VL: B1 VL
# notes: as for B3
# B7: Y12XX-hz22 (antibody, human IgG1, kappa, V domains shown)
# VH: B3 VH with R40A, P101A
# VL: B3 VL
# notes: as for B3
# B8: Y1268-hIgG1f (antibody, V domains shown)
# VH: QVQLQQPGAELVKPGASVRLSCKASGYAFTSYWMHWVKQRPGQGLEWIGQINPSNGRSQYNEKFKTMATLTVDKSSSTAYIQLSSLTSEDSAVYYCARWGLQPFAYWGQGTLVTVSA
# VL: DIVMTQSHKFMSTSVGDRVSITCKASQDVSTAVAWYQQKPGQSPKLLIYSASYRYTGVPDRFTGSGSGTDFTFTISSVQAEDLAVYYCQQHYSTPWTFGGGTKLEIK
# notes: Purified chimeric antibody with human wild-type IgG1f; also called purified chimeric Y1268; Chim-P
# B9: Y1258-hIgG1f (antibody)
# heavy: not shown
# VL: B8 VL
# notes: Purified chimeric antibody, mouse variable regions with human wild-type IgG1f; also called purified chimeric Y1258; Chim-P
# B10: Y1262-hIgG1f (antibody)
# heavy: not shown
# VL: B8 VL with S67Y
# notes: Purified chimeric antibody with human wild-type IgG1f; also called purified chimeric Y1262; Y1632-hIgG1f
# B11: ADX_Y1072.ZZ0-1 (antibody, V domains shown)
# VH: QVQFQQSGAELARPGASVKLSCKASGYTFTSYWMQWVKQRPGQGLEWIGTIYPGDGDSRYNQKFKGKALLTADKSSSIAYMQLNSLASEDSAVYFCARFSLYDGYPYYFDYWGQGTTLTVSS
# VL: DVVMTQTPLSLPVSLGDQASISCRSSQSLVHRNGNTYLHWYLQKPGQSPKLLIYRVSNRFSGVPDRFSGSGSGTDFTLKISRVEAEDLGIYFCSQSTHFPYTFGGGTKLEIK
# notes: Mouse anti-human-CD40 antibody
# B12: ADX_Y1258.ZZ0-1 (antibody, V domains shown)
# VH: QVQLQQSGAELAKPGSSVKMSCKASGYAFTSYWMHWIKQRPGQGLEWIGFINPTTGYSEYNQKFKDKATLTADKSSSTAYMQLNSLTSEDSAVYFCARWGLPPFAYWGQGTLVTVSA
# VL: B8 VL
# notes: as for B11
# B13: ADX_Y1260.ZZ0-1 (antibody, V domains shown)
# VH: QVQLQQSGAELTKPGASVKMSCKASGYSFTSYWMHWVKQRPGQGLEWIGSINPSTGYTEDNQKFKDKATLTADKSSTTAYMQLSSLTSEDSAVYYCARWGLPPFAYWGQGTLVTVSA
# VL: B8 VL
# notes: as for B11
# B14: ADX_Y1262.ZZ0-1 (antibody, V domains shown)
# VH: B12 VH with I37V, F50Y, E59A, F95Y, G100D, L101P, P102R
# VL: B8 VL with S67Y
# notes: as for B11
# B15: ADX_Y1264.ZZ0-1 (antibody, V domains shown)
# VH: EVQLQQSGTVLARPGASVKMSCRASGYSFSSYWMHWVKQRPGQGLEWIGSINPGNSDAFYNQQFKGKAKLTAVTSASTAYMELSSLTNEDSAVYYCTRWGLPPFAYWGQGTLVTVSA
# VL: B8 VL with Q89H
# notes: as for B11
# B16: ADX_Y1267.ZZ0-1 (antibody, V domains shown)
# VH: B8 VH with K23E, A28S, S58T, T66S, S84N
# VL: B8 VL with Q89L, S93T
# notes: as for B11
# B17: ADX_Y1268.ZZ0-1 (antibody, V domains shown)
# VH: B8 VH
# VL: B8 VL
# notes: as for B11
# B18: ADX_Y1238.ZZ0-1 (antibody, V domains shown)
# VH: QVQLQQSGAELVRPGTSVKVSCKASGYAFTNYLIEWVKQRPGQGLEWIGVINPGSGGTNYNEKFKGKATLTADKSSSTAYMQLSSLTSDDSAVYFCARSQLGRRFDYWGQGTTLTVSS
# VL: B8 VL with S30R, A32G, Y55N, G66R, T94P, W96Y
# notes: as for B11
# Molecular target: T1, human-CD40-monomer protein (human, UniProt P25942 21-193, limits assumed)
# T1 construct: Soluble monomer generated in house, used as SPR analyte; also called hCD40; hCD40-monomer
# T1 sequence (P25942 21-193 limits assumed): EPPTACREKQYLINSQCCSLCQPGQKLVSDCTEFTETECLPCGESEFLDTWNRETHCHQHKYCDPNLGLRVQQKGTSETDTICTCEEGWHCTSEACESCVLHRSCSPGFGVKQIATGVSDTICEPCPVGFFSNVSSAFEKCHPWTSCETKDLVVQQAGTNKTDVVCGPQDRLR
# Assay: SPR, Ab captured on protein A, hCD40 monomer 500 and 50 nM, 1:1 fit; supernatant
# Protocol: (§1) Titer analysis was performed using Biolayer Interferometry (BLI) on an Octet RED instrument (Fortebio) by capturing antibodies from supernatant using protein A sensor tips and measuring capture response with respect to a standard curve obtained using a control antibody sample. SPR data were obtained by capturing antibodies on a protein A surface and testing the binding of 500 nM and 50 nM injections of human-CD40 analyte, using a BIAcore™ T200 instrument (GE Healthcare). The kinetic data for the two concentrations of hCD40-monomer were fit to a 1:1 Langmuir model, to yield estimates of the kinetic and affinity values for these interactions, and for comparison of the different molecules.
Binder,Kd,koff,kon
B1,3.5 nM,0.00083 s⁻¹,240000 M⁻¹ s⁻¹
B2,4.7 nM,0.0011 s⁻¹,240000 M⁻¹ s⁻¹
B3,6.2 nM,0.0023 s⁻¹,380000 M⁻¹ s⁻¹
B4,6.4 nM,0.0024 s⁻¹,380000 M⁻¹ s⁻¹
B5,8.2 nM,0.0025 s⁻¹,310000 M⁻¹ s⁻¹
B6,7.6 nM,0.0028 s⁻¹,370000 M⁻¹ s⁻¹
B7,210 nM,0.079 s⁻¹,370000 M⁻¹ s⁻¹

# Molecular target: T1, human-CD40-monomer protein
# Assay: SPR, Ab captured on protein A, hCD40 monomer 500 and 50 nM, 1:1 fit; purified
# Protocol: as §1
Binder,Kd,koff,kon
B8,3.2 nM,0.0013 s⁻¹,400000 M⁻¹ s⁻¹
B9,0.01 nM,5.9e-07 s⁻¹,58000 M⁻¹ s⁻¹
B10,12 nM,0.0055 s⁻¹,480000 M⁻¹ s⁻¹

# Molecular target: human CD40 on cells (tonsillar B cells, immature dendritic cells, Ramos-Blue cells) (human, UniProt P25942 21-277)
# Sequence (P25942 21-277 limits assumed): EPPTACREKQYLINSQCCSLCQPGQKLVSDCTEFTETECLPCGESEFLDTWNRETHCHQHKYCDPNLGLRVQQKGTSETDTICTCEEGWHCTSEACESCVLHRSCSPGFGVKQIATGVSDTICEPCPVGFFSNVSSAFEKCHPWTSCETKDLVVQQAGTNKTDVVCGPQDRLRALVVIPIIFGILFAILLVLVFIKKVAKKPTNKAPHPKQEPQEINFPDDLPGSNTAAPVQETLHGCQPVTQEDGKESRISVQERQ
# Assay: cell-based or functional assay
row,Binder,"Inhibition of B cell proliferation induced by soluble CD40L trimer, Average (IC50 ng/ml)"
1,B1,12.1 ng/mL
2,B2,6 ng/mL

# Molecular target: T1, human-CD40-monomer protein
# Assay: SPR, Ab captured on protein A, 1 uM hCD40 monomer, single concentration, apparent value
# Protocol: The CD40 kinetic and affinity data for human-CD40 monomer binding to mouse anti-human CD40 antibodies captured on a protein A sensor chip surface were assessed by SPR. The data shown are for a single concentration of CD40 analyte (1 μM) and are therefore reported as apparent (app) values.
Binder,Kd,koff,kon
B11,120 nM,0.0092 s⁻¹,77000 M⁻¹ s⁻¹
B12,7.9 nM,0.00013 s⁻¹,17000 M⁻¹ s⁻¹
B13,4 nM,0.00021 s⁻¹,52000 M⁻¹ s⁻¹
B14,6.6 nM,0.0025 s⁻¹,370000 M⁻¹ s⁻¹
B15,17 nM,0.00023 s⁻¹,14000 M⁻¹ s⁻¹
B16,1.1 nM,0.00041 s⁻¹,370000 M⁻¹ s⁻¹
B17,1.4 nM,0.00046 s⁻¹,320000 M⁻¹ s⁻¹
B18,2.2 nM,0.00012 s⁻¹,55000 M⁻¹ s⁻¹

# Molecular target: T1, human-CD40-monomer protein
# Assay: SPR, purified Ab captured on protein A, hCD40 monomer 500-3.9 nM, 37 C, 1:1 Langmuir fit
# Protocol: (§2) Based on the sequences, titer, and SPR binding data, antibodies were selected for larger scale expression, purification, and further characterization. SPR analysis using purified antibodies was performed by capturing antibodies on a protein A surface, with binding of a 500-3.9 nM (2:1) dilution series of human-CD40 monomer, at either 25° C. or 37° C. in PBS-T pH 7.1 buffer; the titration data was fit to a 1:1 Langmuir model.
# (§3) SPR data are fit to a 1:1 Langmuir model using BIAcore™ T200 evaluation software to obtain values for the association rate constant (ka), dissociation rate constant (kd) and dissociation constant (KD).
Binder,Kd,koff,kon
B1,5.5 nM,0.0034 s⁻¹,630000 M⁻¹ s⁻¹
B2,10.9 nM,0.0057 s⁻¹,520000 M⁻¹ s⁻¹

# Molecular target: T1, human-CD40-monomer protein
# Assay: SPR, purified Ab captured on protein A, hCD40 monomer 500-3.9 nM, 25 C, 1:1 Langmuir fit
# Protocol: as §2, §3
Binder,Kd,koff,kon
B1,2.3 nM,0.00073 s⁻¹,310000 M⁻¹ s⁻¹
B2,4.4 nM,0.0013 s⁻¹,290000 M⁻¹ s⁻¹
